The target in the test is T1, recombinant His-tagged wild-type ZPR9 (UniProt Q969S3 1-477).
T1 chain: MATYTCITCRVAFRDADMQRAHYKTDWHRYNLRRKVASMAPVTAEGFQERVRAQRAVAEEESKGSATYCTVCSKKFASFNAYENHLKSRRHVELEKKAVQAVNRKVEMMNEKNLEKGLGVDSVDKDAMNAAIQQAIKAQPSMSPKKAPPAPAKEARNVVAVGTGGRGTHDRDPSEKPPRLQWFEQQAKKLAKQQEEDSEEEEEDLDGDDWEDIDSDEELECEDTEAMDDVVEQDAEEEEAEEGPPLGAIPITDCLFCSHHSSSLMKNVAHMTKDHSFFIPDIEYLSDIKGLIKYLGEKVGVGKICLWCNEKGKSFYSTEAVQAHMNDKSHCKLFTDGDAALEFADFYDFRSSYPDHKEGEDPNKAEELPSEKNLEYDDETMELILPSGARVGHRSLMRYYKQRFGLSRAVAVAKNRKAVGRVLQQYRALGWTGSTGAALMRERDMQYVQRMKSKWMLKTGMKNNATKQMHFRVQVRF
Nature of the test: ITC. For orientation: In ITC the heat of successive injections is recorded.

B1: recombinant His-tagged wild-type MPK38 (enzyme)
chain: MKDYDELLKYYELYETIGTGGFAKVKLACHVLTGEMVAIKIMDKNALGSDLPRVKTEIDALKSLRHQHICQLYHVLETKNKIFMVLEYCPGGELFDYIISQDRLSEEETRVVFRQILSAVAYVHSQGYAHRDLKPENLLFDENHKLKLIDFGLCAKPKGNKDYHLQTCCGSLAYAAPELIQGKSYLGSEADVWSMGILLYVLMCGFLPFDDDNVMALYKKIMRGKYEVPKWLSPSSILLLQQMLQVDPKKRISMRNLLNHPWVMQDYSCPVEWQSKTPLTHLDEDCVTELSVHHRSSRQTMEDLISSWQYDHLTATYLLLLAKKARGKPARLQLLSFSCGTASTTPKSKNLSLEDMSTSDDNCVAGLIDYELCEDKLLAPKTPQVTKHLAESNHAASKSPAPGVRRAVANKLMDKENVCTPKSSVKNEEQFVFSEPKIPVSKNQYKREIPASPTRFPTPAKARAQCLREAPVRTPGNSAGADTLTTGVISPERRCRSMDVDLNQAHMEDTPKKKGTNVFGSLERGLDKVLTALTRNKKKGSARDGPRKRKLHYNVTTTRLVNPDQLLSEIMAILPKKNVDFVQKGYTLKCQTQSDFGKVTMQFELEVCQLQRPDVVGIRRQRLKGDAWVYKRLVEDILSGCKM
Consider B1, for which the Ka came out at 39100 M⁻¹.

The values above are taken from paper PMC5307367 (2017).
